Assay results published in article PMC6044645.

Target: Class I polyhydroxyalkanoate synthase (PhaC) from Rhodovulum sulfidophilum (Rhodovulum sulfidophilum)
Experiment: SEC

Q: How did the stoichiometry N turn out when “Class I polyhydroxyalkanoate synthase (PhaC) from Rhodovulum sulfidophilum (from UniProt A0ABS1RUN8 1-567) (enzyme)” was run?
A: 2
